Test results published in the DeepSol protein solubility set.

test: soluble on expression in E. coli; label from the status in PepcDB or PDB records

Row | Sequence | soluble on expression in E. coli
1 | MGSDKIHHHHHHMCVKKGESSITSLVSAFGRAYHSEFDSPKIFDDYVAKEFISPKERSDIETNMVQGIHFFNTDIAEQFQDNPKEILKWITQVQLSPTPLARAAYCERVLLHEITLGAKQYVILGAGLDTFSFRHRELENKIEIFEVDHPSTQQFKKERIKEAELEVPNNLHFVSMDFTKGFSYEQLRNEGFEHKKTFFSLLGVSYYLTKEELASLIECLFEMVPEGSSIVFDYPDENLFTEKGLSNRVENMVKMAAVGGEPMKSCYSYAEMEALLEKAGLLIYEHLSPEDINAFYFEGRNDYLKAFETVHYVHAVKK | not soluble
2 | MQITSNTRLNELWELYFQTLDKSTSWTFTKESFYNRYLKEPLGKKKLDSIQEHHIMAIIRHLQAEGMATRTVNTTLEILRPLFDFAIKNKALRDNPTRFIVLKKDNLEHHHHHH | not soluble
3 | MGSDKIHHHHHHMQKLVEQVWDYTKHAKFYSYRPNYAPKTIDMLISLVGKKDIKVADIGAGTGNLSIMLLERGCKVVSVEPNDAMREIGIERTKDQKIDWVRATGLNSTLQNSEFDWVTFGSSFNVMDRNEALEEAHRLLKSEGYFSCMWNHRDLNDPVQKIAEDTIVEFVPNYTRGTRREDQRPIIESRKDLFDNIVYIEEDFYFHQSIENYINAWKSVKNPYWDLETDEGNELFNKISNKISQRLPKEFSIKYTTRCWSAKKI | not soluble
4 | ETDETLGEREIRRVLARSGEEGNIDASEVDMIERVFDLDDTVVREVMVPRPDVVSVPADATMSDIRAVVLDEGHTRYPVVDADDSDQIVGFIDVKDVLRAGEEGNENTTAGDIAHEIPVVPETTAINDLLLQFRQDRRQMAAVIDEWGSLEGIATIEDVVEAVVGDLRDEFDVDGREHAIRKQSDGSYDADGGV | not soluble
5 | MIGYVLNGEHEEIPYGELMALLEIFNYNGSVERLKRYVITEDSPAKDIVKRSGYIDEGHRIIFRYNLEEKSVDLVDKIVNDFINSFKDFVANIDYPDIDESKSYAVRVLKLHKDEFTKSIDSLRIEKEIGGIIKLKTNAKVNLTKPDILVRVVILENTFFISNVLEMRDREYFQKNRPHLRKYFHPGCMLPKLARAMVNLARVKEGDIVLDPFCGTGGFLIEAGLIGAKLIGCDIDWRMASGTLINLEEYNLLDKVIKVKRLDAKYVKEFLNELNIEKVDAIVTDPPYGISTAKKGEIEKILETLPEVIKDNGYFVFAYPKKIELDMELEGLYKVYIHKGLIRHIHVYKKI | soluble
6 | MQLPPVHSVSLSEYFVSGNVIIHETAVIAPGVILEAAPDCQITIEAGVCIGLGSVISAHAGDVKIQEQTAIAPGCLVIGPVTIGATACLGSRSTVFQQDIDAQVLIPPGSLLMNRVADVQTVGASSPTTDSVTEKKSPSTANPIAPIPSPWDNEPPAKGTDSPSDQAKESIARQSRPSTAEAAEQISSNRSPGESTPTAPTVVTTAPLVSEEVQEKPPVVGQVYINQLLLTLFPERRYFSS | not soluble
7 | MSAQKPGLHPRNRHQHRYDLAALCQTTPELTSFLIRTPAGEQSVDFANPQAVKALNKALLAHFYAVTHWDIPPGFLCPPVPGRADYIHHLADLLGETTGSIPAQATILDVGVGANCIYPLIGVHEYGWRFTGSEVSDAAMSSAQAIIQANTGLSRAIRLRRQKDPAAIFTGIIHKNEFYDATLCNPPFHDSAAAARAGSERKRRNLGQNKDDALNFGGQQQELWCEGGEVAFIKKMIAESQTFRRQVLWFTTLVSRGENLPPLYRALTEAGAVKVVKKEMAQGQKQSRFIAWTFMDDDQRRRFITRKRLEHHHHHH | soluble
8 | MGSDKIHHHHHHLSIIEQYLSQAEALFQSKNYSSARMYARKVIKRDDKHLGALSLLGQIHLQQQQYNEAENYFATAAAVDPNAMPVLTGLLAIAEVKQDFFLAKTYLLQLINTQGNVETYQYKLGLVATKVGDMALAEQCFEWCVANDFSEPAVQLNLGHIYKAKGDTEKAANFYHQYNQLSPKQVGVGYWSLADLKQYRFSTDDLTLLQVFATDESLSKQNQALVYFALCKAYEQTQQIDKASESMLLANKIMTLHRPFKQAQFANIVLSLLGHTPSPHIDSLPTASQTPIFIVGMPRSGTTLVEQILACHTDVGATDELPFMERFALQMDMSGGYNARLSQLSASHIDQFRQRYLAEVNHYFSDAPTYVIDKNPNNFLHIGLIKTLFPQAKIINVVRNTVDNGLSVFKQFFSFGHDYSYSFAGISSYWQHYLDIMQHWDRLYPNEILHVCFEQLVREPESQIQRILDYCELTTQAQCFTFYESERAVLTPSASQVRQPMNLKAIGQADKYQAFIPEQIAELDAIAKKAALQFFG | not soluble
9 | APAEPAAPKSGEAETPPKHPGVLKVEAILEKVQGLEQAVDSFEGKKTDKKYLMIEEYLTKELLALDSVDPEGRADVRQARRDGVRKVQTILEKLEQKA | soluble
10 | MSLATIKDIARRAGVIPSTVNRTLKDNPSISKETKAKVRAAMDELGYVPNSAAQMLATGLTHSLGVVLPPLTDRENISQPFYMEIITAINEEASSNSQVVSIATGATLEELVKQVELMHRQKRADGFIILYSETNDPVKDYLLKEKVPSVVVGAAVDNNDKVTYIDNDNKELGQEAVNFLRAKGHQKIGFVTDDLFGQVGQEHYQGYIEATNEFNLETYPELVFSSRVIDSLIESLQSYQLTALIVKDDLIALRFIHWLNNQGIRIPEDYAIISFNNSIFAEIMYPFLTTYDINIKELGKESVQRLLDLLKNPQTKAQKITIPFRLIERESVSMGEGHHHHHH | soluble
11 | MSLKPRVVDFDETWNKLLTTIKAVVMLEYVERATWNDRFSDIYALCVAYPEPLGERLYAETKIFLESHVRHLYRYWEEYSKGADYMDCLYRYLNTQYIKKNKLTEADIQYGYGGVDMNEPLMEIGELALDMWRKLMVEPLQNILIRMLLREIKNDRGGEDPNQKVIHGVINSFVHVEQYKKKFPLKFYQGIFVSPFLTETGEYYKQEASNLLQESNCSQYMEKVLGRLKDEEIRCRKYLHPSSYTKVIHECQQRMVADHLQFLHSECHSIIQQERKNDMANMYVLLRAVSSGLPHMIEELQKHIHDEGLRATSNLTQEHMPTLFVESVLEVHGKFVQLINTVLNGDQHFMSALDKALTSVVNYREPKSVCKAPELLAKYCDNLLKKSAKGMTENEVEDKLTSFITVFKYIDDKDVFQKFYARMLAKRLIHGLSMSMDSEEAMINKLKQACGYEFTSKLHRMYTDMSVSADLNNKFNNFIRNQDTVIDLGISFQIYVLQAGAWPLTQAPSSTFAIPQELEKSVQMFELFYSQHFSGRKLTWLHYLCTGEVKMNYLGKPYVAMVTTYQMAVLLAFNNSETVSYKELQDSTQMNEKELTKTIKSLLDVKMINHDSEKEDIDAESSFSLNMSFSSKRTKFKITTSMQKDTPQELEQTRSAVDEDRKMYLQAAIVRIMKARKVLRHNALIQEVISQSRARFNPSISMIKKCIEVLIDKQYIERSQASADEYSYVA | soluble
12 | MGSDKIHHHHHHMQPNPTLDQLQIFVAVADSGSFSAAGRKLNRAQSVISYGIANLEAQLGLKLFEREGTREPQLTEIGRSMLEDARRMIGVLQRMRSRVDGHHHGLEAEVALSVDAALPSPVLVRVLKAFEAQFPTVMLRLHIGSLGLIPDHVVSGQADLGIGGLLGDVDVHLVRIGFMSIVLAAAPSHPLALLPKPLAIEDVREHTQLVVTDQSERTKGRDFGVFAYRTWRLTDMRTKHMLMREGLGWGGLPRWLIADDLVNGRLVELDLEPFSEVKSPMFAMHRNDSSPKPAAAWLIERFKRGLGCFNEFEPGEVPEDEPETIRQSAP | not soluble
13 | MISHCRRLLATTTALVIASTAIAAAEPSAELIAAAKKEGMLTTVALPHDWCGYGDVIAAFKAKYPEITVNELNPDAGSADEVEAVKANKDNKGPQAPDVVDVGLAFGPQMKAEGLLQPYKVSTWAEIPDNVKDADGYWYGDYYGVMSMFVNKDLVKNVPKDWADLLKPEYSGQVALAGDPRASNQAILGVLAAGLSTGAKSGKEAGEAGLKYFADLNKAGNFLPVIGKAGTLAQGATPIIVAWDYNALSWKKTLNDNPPTEVVVPEKGVLAGVYVQGISAYAPHPNAAKLWMEHLYSDDGQLGWLKGYCHPIRFNAMVKAGKVPQELIDSLPPAAAYEKAIFPTLEEVDANKAAVTGGWDKVVGANVK | not soluble
14 | RSARPPGPRVSRARCLPGLIAEQLLQQAARGQDRQQQLQRDPQKALCDLHPSWKEIQALQCRPGHPPEQPWETSQMPESQVKGSRRPKFHARPEDYAVSQPNRDIQEKREASLEESPVALGESASVPQVSETVPASQPLSKKTSSQSNSSSEGSMWATVPSSPTLDRDTASEVDDLEPDSVSLALEMGGSAAPAAPKLKIFMAQYNYNPFEGPNDHPEGELPLTAGDYIYIFGDMDEDGFYEGELDDGRRGLVPSNFVEQIPDSYIPGCLPAKSPDLGPSQLPAGQDEALEEDSLLSGKAQGVVDRGLCQMVRVGSKTEVATEILDTKTEACQLGLLQSMGKQGLSRPLLGTKGVLRMAPMQLHLQNVTATSANITWVYSSHRHPHVVYLDDREHALTPAGVSCYTFQGLCPGTHYRARVEVRLPRDLLQVYWGTMSSTVTFDTLLAGPPYPPLDVLVERHASPGVLVVSWLPVTIDSAGSSNGVQVTGYAVYADGLKVCEVADATAGSTLLEFSQLQVPLTWQKVSVRTMSLCGESLDSVPAQIPEDFFMCHRWPETPPFSYTCGDPSTYRVTFPVCPQKLSLAPPSAKASPHNPGSCGEPQAKFLEAFFEEPPRRQSPVSNLGSEGECPSSGAGSQAQELAEAWEGCRKDLLFQKSPQNHRPPSVSDQPGEKENCSQHMGTSKSPAPGFIHLRTECGPRKEPCQEKAALERVLRQKQDAQGFTPPQLGASQQYASDFHNVLKEEQEALCLDLWGTERREERREPEPHSRQGQALGVKRGCQLHEPSSALCPAPSAKVIKMPRGGPQQLGTGANTPARVFVALSDYNPLVMSANLKAAEEELVFQKKQLLRVWGSQDTHDFYLSECNRQVGNIPGCLVAEMEVGTEQTDRRWRSPAQGHLPSVAHLEDFQGLTIPQGSSLVLQGNSKRLPLWTPKIMIAALDYDPGDGQMGGQGKGRLALRAGDVVMVYGPMDDQGFYYGELGGHRGLVPAHLLDHMSLHGH | soluble
15 | MFALPQAGDRRGEIIKVLLSNGWDYMNGLLTLGKVGEPQIPTPEVLTKILVELGPFYIKLGQLLSTRPDLLPPRYINALTALQSNVPPLPWSAIEDLLQREFPQPLGETFQEIESEPIAALEHHHHHH | not soluble
16 | MGKFLVQFWGVRGLIPTPSSNTSRYGGNTACVEMQVAGKRLIFDGGTGLRILGKAWQHLQQPLEAHLFFTNSQSNRIQGFPFFAPAFIAGNCFHIYGGAASNGASIKQCLCDQMLQPHFPYPLQVMQSELQFYPLTPDSEVKLDDVTIRTALINQTQRSIGYRVTWQEYSVAYVTDLNMSAEQGEREQVLQIIQDVDLLIANATYTPPTSHDHESVDLLWQAAVEMAQKAGVRKLIISHHHPDDHDDFLDQVEKEVQSTFSDALLACEGLALPVFLEHHHHHH | not soluble
17 | MKKWFPALLFSLCVSGESSAWNNIVFYSLGDVNSYQGGNVVITQRPQFITSWRPGIATVTWNQCNGPEFADGFWAYYREYIAWVVFPKKVMTQNGYPLFIEVHNKGSWSEENTGDNDSYFFLKGYKWDERAFDAGNLCQKPGEITRLTEKFDDIIFKVALPADLPLGDYSVKIPYTSGMQRHFASYLGARFKIPYNVAKTLPRENEMLFLFKNIGGCRPSAQSLEIKHGDLSINSANNHYAAQTLSVSCDVPANIRFMLLRNTTPTYSHGKKFSVGLGHGWDSIVSVNGVDTGETTMRWYKAGTQNLTIGSRLYGESSKIQPGVLSGSATLLMILP | soluble
18 | MEQQRDFDSALAWHRKAKCAGKAGSADVLPGHDKDANAARVVELCAMCADCPVFEQCGREAIAEPFLTLGVVRAGIPDTTQSKSKQKKLLQQVIDEGVPPPVALIMALKDRKGYEGALVGLAGLYEAYRGVYV | not soluble
